Results on 15 molecules are retold here after patent US20250296971A1, “GASTRIC INHIBITORY PEPTIDE RECEPTOR LIGANDS” (priority 2021, published 2025).

This assay concerns the target human Gastric Inhibitory Peptide Receptor (human) (UniProt P48546). In words: FACS competition with GIP-057 on CHO-K1-hGIPR cells; pIC50 category A: >8.0.

*1 amine or outer side, *2 acyl side, *3 side chain or, on linkers, in order; H or OH if unused. Bridges are numbered along the chain shown (N, C = ends). Where no end group is shown, it is not given here. Side-chain parts run from the residue outwards. [ ]: non-standard residue; d: D form. The star is where a group is joined. NOPO = NOPO chelator, O=C(CCP(=O)(O)CN1CCN(CP(=O)(O)CO)CCN(CP(=O)(O)CO)CC1)*; (dE)(AGLU) = D-glutamic acid bearing 1-amino-1-deoxy-D-glucitol; 2,6‑lutidylidene = 2Lut, Cys-Cys crosslink via 2,6-lutidylidene; dE(AGLU) = D-glutamic acid bearing 1-amino-1-deoxy-D-glucitol; Pro(trans-4-NH2) = O=C([C@@H]1C[C@@H](N[*:3])CN1[*:1])[*:2]; DOTA = O=C(O)CN1CCN(CC(=O)O)CCN(CC(=O)*)CCN(CC(=O)O)CC1; NODAGA = O=C(O)CN1CCN(CC(=O)O)CCN(C(CCC(=O)*)C(=O)O)CC1; N(CH2CH2CO)Gly = O=C(CN(CCC(=O)[*:3])[*:1])[*:2]; Trp(5-Cl) = N[C@@H](Cc1c[nH]c2ccc(Cl)cc12)C(=O)O; Pyridine(2,6-diCH2) = c1cc(C[*:1])nc(C[*:2])c1; APAc = 4-amino-1-carboxymethylpiperidine; mXylylene = c1cc(C[*:1])cc(C[*:2])c1; Glutaryl = O=C(CCCC(=O)[*:2])[*:1]; AGLU = 1-amino-1-deoxy-D-glucitol; Hyp = O=C(O)[C@@H]1C[C@@H](O)CN1; pS = N[C@@H](COP(=O)(O)O)C(=O)O; hCys = N[C@@H](CCS)C(=O)O; Api = NC1(C(=O)O)CCNCC1; Dab = NCC[C@H](N)C(=O)O; Thp = NC1(C(=O)O)CCOCC1 Where only a bound is given, the exact number is not on record here.

Sequence of human Gastric Inhibitory Peptide Receptor (human) (P48546 22-466 limits assumed): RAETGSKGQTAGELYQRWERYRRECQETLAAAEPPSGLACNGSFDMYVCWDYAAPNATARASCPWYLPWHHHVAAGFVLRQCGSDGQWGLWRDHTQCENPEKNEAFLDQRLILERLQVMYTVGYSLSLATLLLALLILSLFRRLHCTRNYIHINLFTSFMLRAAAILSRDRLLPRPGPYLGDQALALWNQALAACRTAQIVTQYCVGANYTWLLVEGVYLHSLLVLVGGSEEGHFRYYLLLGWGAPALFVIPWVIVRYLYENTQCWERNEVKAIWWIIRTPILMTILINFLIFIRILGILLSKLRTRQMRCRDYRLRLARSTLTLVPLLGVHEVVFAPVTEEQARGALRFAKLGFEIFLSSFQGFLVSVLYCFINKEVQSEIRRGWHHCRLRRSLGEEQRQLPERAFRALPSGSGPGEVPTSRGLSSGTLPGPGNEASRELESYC

Turning to {AGLU-Glutaryl}-DW[Trp(5-Cl)][Pro(trans-4-NH2)]E[dL]C[Api]([Gly-NODAGA])LIC-{APAc-dE(AGLU)-NH2} (linker 7-11 via Pyridine(2,6-diCH2)) [AGLU-Glutar-Asp-Trp-5Clw-Tap-Glu-leu-[Cys(2Lut)-Apc(NODAGA-Gly)-Leu-Ile-Cys]-APAc-glu(AGLU)-NH2], the pIC50 is more than 8 pic50.

The molecule {AGLU-Glutaryl}-DW[Trp(5-Cl)][Pro(trans-4-NH2)]E[dL]C[Api](NOPO)LIC-{APAc-dE(AGLU)-NH2} (linker 7-11 via Pyridine(2,6-diCH2)) [AGLU-Glutar-Asp-Trp-5Clw-Tap-Glu-leu-[Cys(2Lut)-Apc(NOPO)-Leu-Ile-Cys]-APAc-glu(AGLU)-NH2] yielded a pIC50 of more than 8 pic50.

{AGLU-Glutaryl}-DW[Trp(5-Cl)][Pro(trans-4-NH2)]E[dL]C[Api](NODAGA)LIC-{APAc-dE(AGLU)-NH2} (linker 7-11 via Pyridine(2,6-diCH2)) [AGLU-Glutar-Asp-Trp-5Clw-Tap-Glu-leu-[Cys(2Lut)-Apc(NODAGA)-Leu-Ile-Cys]-APAc-glu(AGLU)-NH2] came in with a pIC50 of more than 8 pic50.

Ac-DW[Trp(5-Cl)][Hyp]E[dL]C[Thp]LI[hCys]-NH2 (linker 7-11 via Pyridine(2,6-diCH2)) [Ac-Asp-Trp-5Clw-Hyp-Glu-leu-[Cys(2Lut)-Thp-Leu-Ile-Hcy]-NH2] displayed a pIC50 of more than 8 pic50.

Molecule Ac-DW[Trp(5-Cl)][Hyp]Q[dL]C[Thp]LIC-NH2 (linker 7-11 via Pyridine(2,6-diCH2)) [Ac-Asp-Trp-5Clw-Hyp-Gln-leu-[Cys(2Lut)-Thp-Leu-Ile-Cys]-NH2] came in with a pIC50 of more than 8 pic50.

Molecule {AGLU-Glutaryl}-DW[Trp(5-Cl)][Pro(trans-4-NH2)]E[dL]C[Dab](DOTA)LIC-{APAc-dE(AGLU)-NH2} (linker 7-11 via Pyridine(2,6-diCH2)) [AGLU-Glutar-Asp-Trp-5Clw-Tap-Glu-leu-[Cys(2Lut)-Dab(DOTA)-Leu-Ile-Cys]-APAc-glu(AGLU)-NH2] showed a pIC50 of more than 8 pic50.

B1: Ac-Pse-Trp-5Clw-Hyp-Glu-leu-[Cys(2Lut)-Thp-Leu-Ile-Cys]-NH2 (peptide)
peptide: Ac-[pS]W[Trp(5-Cl)][Hyp]E[dL]C[Thp]LIC-NH2
modifications: linker 7-11 via Pyridine(2,6-diCH2)
SMILES: CC[C@H](C)[C@@H]1NC(=O)[C@H](CC(C)C)NC(=O)C2(CCOCC2)NC(=O)[C@@H](NC(=O)[C@@H](CC(C)C)NC(=O)[C@H](CCC(=O)O)NC(=O)[C@@H]2C[C@@H](O)CN2C(=O)[C@H](Cc2c[nH]c3ccc(Cl)cc23)NC(=O)[C@H](Cc2c[nH]c3ccccc23)NC(=O)[C@H](COP(=O)(O)O)NC(C)=O)CSCc2cccc(n2)CSC[C@@H](C(N)=O)NC1=O
Turning to B1, the pIC50 was more than 8 pic50.

As for Ac-DW[Trp(5-Cl)][Hyp]E[dL][hCys][Thp]LIC-NH2 (linker 7-11 via Pyridine(2,6-diCH2)) [Ac-Asp-Trp-5Clw-Hyp-Glu-leu-[Hcy(2Lut)-Thp-Leu-Ile-Cys]-NH2], the pIC50 was more than 8 pic50.

As for {DOTA-dE(AGLU)}-DW[Trp(5-Cl)][Pro(trans-4-NH2)]E[dL]C[Thp]LIC-{APAc-dE(AGLU)-NH2} (linker 7-11 via Pyridine(2,6-diCH2)) [DOTA-glu(AGLU)-Asp-Trp-5Clw-Tap-Glu-leu-[Cys(2Lut)-Thp-Leu-Ile-Cys]-APAc-glu(AGLU)-NH2], the pIC50 was more than 8 pic50.

B2: HO-Succinyl-Trp-5Clw-Pro-Glu-leu-[Cys(3MeBn)-Thp-Leu-Ile-Cys]-NH2 (peptide)
peptide: W[Trp(5-Cl)]PE[dL]C[Thp]LIC-NH2
modifications: linker 6-10 via mXylylene; not fully specified (N-terminus); printed as HO-Succinyl-Trp-5Clw-Pro-Glu-leu-[Cys(3MeBn)-Thp-Leu-Ile-Cys]-NH2
As for B2, the pIC50 was more than 8 pic50.

{AGLU-Glutaryl}-DW[Trp(5-Cl)][Pro(trans-4-NH2)]E[dL]CK(DOTA)LIC-{APAc-dE(AGLU)-NH2} (linker 7-11 via 2,6‑lutidylidene) [AGLU-Glutar-Asp-Trp-5Clw-Tap-Glu-leu-[Cys(2Lut)-Lys(DOTA)-Leu-Ile-Cys]-APAc-glu(AGLU)-NH2]: the pIC50 was more than 8 pic50.

B3: DOTA-O2Oc-glu(AGLU)-Asp-Trp-5Clw-Tap-Glu-leu-[Cys(2Lut)-Thp-Leu-Ile-Cys]-APAc-glu(AGLU)-NH2 (peptide)
peptide: DW[Trp(5-Cl)][Pro(trans-4-NH2)]E[dL]C[Thp]LIC-{APAc-(dE)(AGLU)-NH2}
modifications: linker 7-11 via Pyridine(2,6-diCH2); not fully specified (N-terminus); printed as DOTA-O2Oc-glu(AGLU)-Asp-Trp-5Clw-Tap-Glu-leu-[Cys(2Lut)-Thp-Leu-Ile-Cys]-APAc-glu(AGLU)-NH2
B3 showed a pIC50 of more than 8 pic50.

Ac-DW[Trp(5-Cl)][Hyp]D[dL]C[Thp]LIC-NH2 (linker 7-11 via Pyridine(2,6-diCH2)) [Ac-Asp-Trp-5Clw-Hyp-Asp-leu-[Cys(2Lut)-Thp-Leu-Ile-Cys]-NH2]: the pIC50 was more than 8 pic50.

Molecule {DOTA-dE(AGLU)}-DW[Trp(5-Cl)][Hyp]E[dL]C[Thp]LIC-{APAc-dE(AGLU)-NH2} (linker 7-11 via Pyridine(2,6-diCH2)) [DOTA-glu(AGLU)-Asp-Trp-5Clw-Hyp-Glu-leu-[Cys(2Lut)-Thp-Leu-Ile-Cys]-APAc-glu(AGLU)-NH2] came in with a pIC50 of more than 8 pic50.

Ac-DW[Trp(5-Cl)][N(CH2CH2CO)Gly]E[dL]C[Thp]LIC-NH2 (linker 7-11 via Pyridine(2,6-diCH2)) [Ac-Asp-Trp-5Clw-Nglu-Glu-leu-[Cys(2Lut)-Thp-Leu-Ile-Cys]-NH2] came in with a pIC50 of more than 8 pic50.
